In this assay the target is Human CAIX (carbonic anhydrase IX) (human) (UniProt Q16790). The assay is described as follows: ELISA screening, biotinylated human CAIX 0.25 ug/ml, negative control wells. A general note: ELISA stands for enzyme-linked immunosorbent assay.

“negative control of the ELISA screening of the maturated library (designed binder)” gave an absorbance at 450 nm of 0.1 AU.
